Source: the Immune Epitope Database (IEDB)
pKd: −log10 of the molar value.

Assays:
Experiment in all cases: IEDB peptide-MHC binding, purified MHC/competitive/radioactivity; filed as Kd, often an IC50 or EC50 that approximates it; ≥ and ≤ were set here for values at or beyond the usual limits of such assays
HLA-A*03:01 = molecular target: HLA-A*03:01
HLA-A*11:01 = molecular target: HLA-A*11:01
HLA-A*31:01 = molecular target: HLA-A*31:01
HLA-A*33:01 = molecular target: HLA-A*33:01
HLA-A*68:01 = molecular target: HLA-A*68:01
[1] = source organism: Vaccinia virus WR
[2] = source organism: SARS coronavirus Tor2
[3] = source organism: Mammarenavirus juninense
[4] = source organism: Mammarenavirus guanaritoense

Sequence	pKd (HLA-A*03:01; [1])	pKd (HLA-A*11:01; [1])	pKd (HLA-A*31:01; [1])	pKd (HLA-A*33:01; [1])	pKd (HLA-A*68:01; [1])	also measured
ETFKIDAVRY	≤ 4.15	≤ 4.60	≤ 4.38	≤ 4.15	7.33	–
SLTVLFDGR	–	–	–	–	–	pKd (HLA-A*03:01; [2]): 5.32; pKd (HLA-A*11:01; [2]): 5.12; pKd (HLA-A*31:01; [2]): 6.46; pKd (HLA-A*33:01; [2]): 5.60; pKd (HLA-A*68:01; [2]): 5.87
SFIVPEFAK	≤ 4.36	6.99	7.56	5.08	5.95	–
RLGLVLDDYK	7.31	7.42	5.65	≤ 4.15	6.30	–
VTLFYCDER	≤ 4.36	6.56	6.88	6.55	6.92	–
KSMFWDGMDY	8.24	8.76	7.11	≤ 4.18	6.29	–
VTCAAYYFMK	–	–	–	–	–	pKd (HLA-A*03:01; [2]): 7.90; pKd (HLA-A*11:01; [2]): 8.16; pKd (HLA-A*31:01; [2]): 6.70; pKd (HLA-A*33:01; [2]): 5.58; pKd (HLA-A*68:01; [2]): 7.31
FLKEQHCQK	–	–	–	–	–	pKd (HLA-A*03:01; [2]): 6.71; pKd (HLA-A*11:01; [2]): 4.81; pKd (HLA-A*31:01; [2]): 6.10; pKd (HLA-A*33:01; [2]): 6.19; pKd (HLA-A*68:01; [2]): 5.88
KAIEKDRLDK	4.90	5.92	≤ 4.66	≤ 4.15	5.33	–
VISKIYTLIY	7.00	6.95	6.00	5.65	5.75	–
VTRKCPQKK	9.12	7.21	7.86	4.91	5.01	–
FLKDDTLSK	6.46	≤ 5.00	≤ 4.11	≤ 4.51	6.20	–
AFLLRHYYNK	6.13	6.65	7.62	5.72	5.27	–
LAMDEFIQR	–	–	–	–	–	pKd (HLA-A*03:01; [2]): ≤ 4.11; pKd (HLA-A*11:01; [2]): 5.62; pKd (HLA-A*31:01; [2]): 6.44; pKd (HLA-A*33:01; [2]): 5.84; pKd (HLA-A*68:01; [2]): 6.21
ISDYSAEVER	≤ 4.63	5.42	5.76	5.87	6.64	–
NVHEHINDQK	5.39	4.74	≤ 4.15	≤ 4.53	8.36	–
NLTDTNFKK	5.91	6.18	5.04	5.35	7.57	–

Sequence	pKd (HLA-A*03:01; [1])	pKd (HLA-A*11:01; [1])	pKd (HLA-A*31:01; [1])	pKd (HLA-A*33:01; [1])	pKd (HLA-A*68:01; [1])	also measured
QTVKPGNFNK	–	–	–	–	–	pKd (HLA-A*03:01; [2]): 5.56; pKd (HLA-A*11:01; [2]): 6.60; pKd (HLA-A*31:01; [2]): 5.82; pKd (HLA-A*33:01; [2]): 4.98; pKd (HLA-A*68:01; [2]): 6.38
FLLNKEMYLK	–	–	–	–	–	pKd (HLA-A*03:01; [2]): 7.23; pKd (HLA-A*11:01; [2]): 6.82; pKd (HLA-A*31:01; [2]): 5.68; pKd (HLA-A*33:01; [2]): 5.60; pKd (HLA-A*68:01; [2]): 6.01
DSMDVLAEK	6.39	8.76	6.01	8.74	9.91	–
KASMLEKYK	5.39	6.96	6.74	≤ 4.41	5.55	–
FLEFSNRVY	7.36	5.49	5.88	5.07	5.00	–
RNPYENLLYK	–	–	–	–	–	pKd (HLA-A*03:01; [3]): 5.61; pKd (HLA-A*11:01; [3]): 6.20; pKd (HLA-A*31:01; [3]): 5.32; pKd (HLA-A*33:01; [3]): ≤ 4.44; pKd (HLA-A*68:01; [3]): 4.90
CAVHLIIYY	5.00	6.10	5.31	≤ 4.68	7.61	–
CCNWLDRCR	–	–	–	–	–	pKd (HLA-A*03:01; [4]): ≤ 4.11; pKd (HLA-A*11:01; [4]): 4.74; pKd (HLA-A*31:01; [4]): 4.87; pKd (HLA-A*33:01; [4]): ≤ 4.25; pKd (HLA-A*68:01; [4]): ≤ 4.11
IITSTKTIEY	7.09	6.04	5.18	4.85	5.24	–
DTSEKYSKGY	≤ 4.15	6.05	≤ 4.15	≤ 4.15	6.27	–
AFHTPAFDK	–	–	–	–	–	pKd (HLA-A*03:01; [2]): 5.84; pKd (HLA-A*11:01; [2]): 6.02; pKd (HLA-A*31:01; [2]): 5.25; pKd (HLA-A*33:01; [2]): ≤ 4.48; pKd (HLA-A*68:01; [2]): 5.07
TFFSTFKCY	–	–	–	–	–	pKd (HLA-A*03:01; [2]): 5.24; pKd (HLA-A*11:01; [2]): 5.36; pKd (HLA-A*31:01; [2]): 6.10; pKd (HLA-A*33:01; [2]): 5.94; pKd (HLA-A*68:01; [2]): 5.97
QFNFNGHTY	5.28	4.85	6.25	≤ 4.19	6.76	–
VALYRRIQR	4.79	5.28	8.64	7.89	6.59	–
MIKMFSQIDR	5.65	5.42	8.61	7.34	8.80	–
QFIKPVSDLY	≤ 4.15	≤ 4.42	≤ 4.33	≤ 4.37	5.90	–
ESIEDKFDY	5.12	4.95	≤ 4.46	≤ 4.11	5.76	–
